This note sets out measurements from paper PMC10658506.

The experiment deals with human gp130-Fc (UniProt P40189). The experiment in a line: flow cytometry on yeast-displayed IL-11. As to conditions: 100 nM IL-11R added, read off a plot. For orientation: In flow cytometry, cells or beads pass a laser one at a time.
Setting [1] is: 100 nM gp130-Fc, parent: est. 35000.
[2] abbreviates: 1000 nM gp130-Fc, parent: est. 40000.

Chain of human gp130-Fc (P40189 whole entry, looked up, tested part not stated): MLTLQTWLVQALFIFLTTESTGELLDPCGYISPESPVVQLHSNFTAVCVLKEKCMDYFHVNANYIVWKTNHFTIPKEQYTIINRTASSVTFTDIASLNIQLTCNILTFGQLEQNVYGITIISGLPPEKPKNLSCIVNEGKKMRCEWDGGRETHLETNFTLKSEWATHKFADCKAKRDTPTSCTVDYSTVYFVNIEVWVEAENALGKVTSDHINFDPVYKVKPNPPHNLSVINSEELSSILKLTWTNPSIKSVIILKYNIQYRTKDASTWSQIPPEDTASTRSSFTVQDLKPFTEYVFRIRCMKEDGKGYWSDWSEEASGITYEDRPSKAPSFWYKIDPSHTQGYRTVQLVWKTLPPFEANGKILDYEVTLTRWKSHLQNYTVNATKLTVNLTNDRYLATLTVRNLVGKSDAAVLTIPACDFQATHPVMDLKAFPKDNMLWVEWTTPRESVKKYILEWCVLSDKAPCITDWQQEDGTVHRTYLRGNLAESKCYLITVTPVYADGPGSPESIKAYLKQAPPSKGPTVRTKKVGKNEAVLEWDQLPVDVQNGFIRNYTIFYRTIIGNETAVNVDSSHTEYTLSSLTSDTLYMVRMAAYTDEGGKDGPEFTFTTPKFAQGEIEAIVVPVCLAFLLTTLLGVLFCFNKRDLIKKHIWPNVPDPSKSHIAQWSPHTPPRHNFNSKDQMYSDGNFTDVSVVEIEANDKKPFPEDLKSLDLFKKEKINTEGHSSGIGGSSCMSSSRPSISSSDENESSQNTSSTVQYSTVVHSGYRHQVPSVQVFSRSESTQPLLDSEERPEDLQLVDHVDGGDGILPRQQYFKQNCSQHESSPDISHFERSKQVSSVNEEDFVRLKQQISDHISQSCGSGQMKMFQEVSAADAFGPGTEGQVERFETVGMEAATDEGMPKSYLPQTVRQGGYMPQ

With “yeast-displayed IL-11 GIPR precomplexed with soluble human IL-11R (from UniProt Q14626) W147A”, the response (Normalized Fluorescence) reads like this: (10 nM gp130-Fc, parent: est. 28000) 4900; under setting [1], 17000; under setting [2], 26000.
Turning to “yeast-displayed IL-11 GIPR precomplexed with soluble human IL-11R (from UniProt Q14626) L24R; W147A”, the response (Normalized Fluorescence) under setting [1] was 1900 and the response (Normalized Fluorescence) under setting [2] was determined as 4500.
